In patent US20210087281A1 (AGOMAB THERAPEUTICS, published 2021):

Assays:
[1] = target: T1, native human MET on living cells (human, UniProt P08581 25-1390); experiment: cell-based or functional assay
[2] = target: T2, native mouse MET on living cells (mouse, UniProt P16056 25-1379); experiment: cell-based or functional assay
[3] = target: T1, native human MET on living cells; experiment: cell-based or functional assay; remark: listed apart in the source
[4] = target: T2, native mouse MET on living cells; experiment: cell-based or functional assay; remark: listed apart in the source
[5] = target: T1, native human MET on living cells; experiment: cell-based or functional assay; remark: listed apart in the source
[6] = target: T2, native mouse MET on living cells; experiment: cell-based or functional assay; remark: listed apart in the source
[7] = target: T1, native human MET on living cells; experiment: cell-based or functional assay; remark: listed apart in the source
[8] = target: T2, native mouse MET on living cells; experiment: cell-based or functional assay; remark: listed apart in the source
[9] = target: T1, native human MET on living cells; experiment: flow cytometry, A549 cells
Description: (§1) We also analysed whether chimeric anti-MET antibodies bound to native human and mouse MET in living cells. […] Antibody binding to cells was analysed by flow cytometry using phycoerythrin-conjugated anti-human IgG1 antibodies (eBioscience) and a CyAn ADP analyser (Beckman Coulter). As a positive control for human MET binding, we used a commercial mouse anti-human MET antibody (R&D Systems) and phycoerythrin-conjugated anti-mouse IgG1 antibodies (eBioscience).
(§2) As a positive control for mouse MET binding we used a commercial goat anti-mouse MET antibody (R&D Systems) and phycoerythrin-conjugated anti-goat IgG1 antibodies (eBioscience). […] Consistent with the data obtained in ELISA, maximal binding (EMAX) varied depending on antibody, but was similar in human and mouse cells.

[10] = target: T2, native mouse MET on living cells; experiment: flow cytometry, MLP29 cells
Description: as §1, §2

[11] = target: human MET ECD mutant A (mutations 1, 2, 3) (human) (UniProt P08581); experiment: ELISA, MET ECD in solid phase, mAb 0-50 nM
[12] = target: human MET ECD mutant D (mutations 1, 2) (human) (UniProt P08581); experiment: ELISA, MET ECD in solid phase, mAb 0-50 nM
[13] = target: human MET ECD mutant E (mutations 2, 3, 4) (human) (UniProt P08581); experiment: ELISA, MET ECD in solid phase, mAb 0-50 nM
[14] = target: human MET ECD mutant H (mutations 2, 4) (human) (UniProt P08581); experiment: ELISA, MET ECD in solid phase, mAb 0-50 nM
human MET ECD [15] = target: T3, human MET ECD (human, UniProt P08581 25-932); experiment: ELISA, MET ECD in solid phase, mAb 0-20 nM
T3 construct: range 1-932; recombinant ECD made by the applicants; the stated range begins at residue 1, so it includes the signal peptide of the entry; also called hMET; hMET ECD
T3 sequence (P08581 25-932 limits assumed, form in doubt): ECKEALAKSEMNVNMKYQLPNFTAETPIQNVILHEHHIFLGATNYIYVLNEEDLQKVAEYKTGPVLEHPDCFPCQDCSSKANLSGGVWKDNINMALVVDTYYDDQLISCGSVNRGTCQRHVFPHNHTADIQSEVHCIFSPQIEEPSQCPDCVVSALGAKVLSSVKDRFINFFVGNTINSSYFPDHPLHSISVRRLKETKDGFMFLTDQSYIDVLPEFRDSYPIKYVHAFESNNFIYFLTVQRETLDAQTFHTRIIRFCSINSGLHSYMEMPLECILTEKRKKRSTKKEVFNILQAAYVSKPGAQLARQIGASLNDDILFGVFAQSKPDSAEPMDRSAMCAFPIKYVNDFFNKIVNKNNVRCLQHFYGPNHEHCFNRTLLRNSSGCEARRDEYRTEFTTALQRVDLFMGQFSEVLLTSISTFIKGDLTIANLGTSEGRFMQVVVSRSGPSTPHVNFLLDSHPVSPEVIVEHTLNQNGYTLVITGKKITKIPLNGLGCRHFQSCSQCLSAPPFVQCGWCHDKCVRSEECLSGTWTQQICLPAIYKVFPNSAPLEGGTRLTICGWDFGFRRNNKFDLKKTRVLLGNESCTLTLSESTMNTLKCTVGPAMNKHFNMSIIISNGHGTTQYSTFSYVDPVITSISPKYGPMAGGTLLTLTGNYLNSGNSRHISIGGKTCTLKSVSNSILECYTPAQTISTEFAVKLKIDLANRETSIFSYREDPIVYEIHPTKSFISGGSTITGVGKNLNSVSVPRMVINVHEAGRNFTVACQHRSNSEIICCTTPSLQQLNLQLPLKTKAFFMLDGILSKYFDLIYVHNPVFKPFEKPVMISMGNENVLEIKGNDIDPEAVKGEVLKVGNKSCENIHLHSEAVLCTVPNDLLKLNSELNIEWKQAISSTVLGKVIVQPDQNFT
Description: (§3) Production (by transient transfection of mammalian cells) and purification (by protein A affinity chromatography) of the resulting chimeric llama-human IgG1 molecules was outsourced to U-protein Express. Binding of chimeric mAbs to MET was determined by ELISA using hMET or mMET ECD in solid phase and increasing concentrations of antibodies (0-20 nM) in solution. […] Binding capacity (EMAX) varied from antibody to antibody, possibly due to partial epitope exposure in the immobilized antigen, but was similar in the human and mouse setting.

mouse MET ECD = target: T4, mouse MET ECD (mouse, UniProt P16056 25-931); experiment: ELISA, MET ECD in solid phase, mAb 0-20 nM
T4 construct: range 1-931; recombinant ECD made by the applicants; the stated range begins at residue 1; also called mMET; mMET ECD
Description: as §3

human MET ECD [16] = target: T3, human MET ECD; experiment: ELISA, MET ECD in solid phase, mAb 0-50 nM
Description: Using human MET as a template, we mutagenized each of these residues in different permutations, generating a series of MET mutants that are fully human except for specific residues, which are llama. Next, we tested the affinity of selected SEMA-binding mAbs (71D6, 71C3, 71D4, 71A3, 71G2) and PSI-binding mAbs (76H10 and 71G3) for these MET mutants by ELISA. To this end, the various MET proteins were immobilized in solid phase (100 ng/well in a 96-well plate) and then exposed to increasing concentrations of antibodies (0-50 nM) solution. […] Wild-type human MET was used as positive control.
TABLE 18 The epitopes of MET responsible for agonistic antibody binding represent residues conserved among H. sapiens, M. musculus, R. norvegicus, M. fascicularis but not among the same species and L. glama. The relevance of residues conserved among human, mouse, rat, cynomolgus monkey but not llama MET for binding to agonistic mAbs was tested by ELISA. Wild-type (WT) or mutant (MT) human MET ECD was immobilized in solid phase and exposed to increasing concentrations of mAbs in solution. […] All binding values were normalized to the WT protein and are expressed as % binding (EMAX) compared to WT MET.

[17] = target: T5, human MET-Fc (R&D Systems) (human, UniProt P08581 25-932); experiment: competition ELISA, hMET-Fc in solid phase, competitor 0.3 nM biotinylated hHGF
T5 construct: extracellular domain; bought chimeric protein; also called hMET; not shown: Fc portion of human IgG1
T5 sequence (P08581 25-932): as the sequence (P08581 25-932 limits assumed, form in doubt) above
Description: (§4) To investigate along this line, we tested the competition between mAbs and HGF by ELISA. Recombinant human and mouse HGF (R&D Systems) were biotinylated at the N-terminus using NHS-LC-biotin (Thermo Scientific). MET-Fc protein, either human or mouse (R&D Systems), was immobilized in solid phase and then exposed to 0.3 nM biotinylated HGF, either human or mouse, in the presence of increasing concentrations of antibodies (0-120 nM).
(§5) A MET-Fc chimeric protein (either human or mouse) was immobilized in solid phase and exposed to a fixed concentration of biotinylated HGF (either human or mouse), in the presence of increasing concentrations of antibodies. […] Antibody-HGF competition is expressed as IC₅₀ (the concentration that achieves 50% competition) and IMAX (the maximum % competition reached at saturation).

[18] = target: T6, mouse MET-Fc (R&D Systems) (mouse, UniProt P16056 25-929, limits assumed); experiment: competition ELISA, mMET-Fc in solid phase, competitor 0.3 nM biotinylated mHGF
T6 construct: bought chimeric protein; also called mMET; not shown: Fc part
Description: as §4, §5

T1 sequence (P08581 25-1390): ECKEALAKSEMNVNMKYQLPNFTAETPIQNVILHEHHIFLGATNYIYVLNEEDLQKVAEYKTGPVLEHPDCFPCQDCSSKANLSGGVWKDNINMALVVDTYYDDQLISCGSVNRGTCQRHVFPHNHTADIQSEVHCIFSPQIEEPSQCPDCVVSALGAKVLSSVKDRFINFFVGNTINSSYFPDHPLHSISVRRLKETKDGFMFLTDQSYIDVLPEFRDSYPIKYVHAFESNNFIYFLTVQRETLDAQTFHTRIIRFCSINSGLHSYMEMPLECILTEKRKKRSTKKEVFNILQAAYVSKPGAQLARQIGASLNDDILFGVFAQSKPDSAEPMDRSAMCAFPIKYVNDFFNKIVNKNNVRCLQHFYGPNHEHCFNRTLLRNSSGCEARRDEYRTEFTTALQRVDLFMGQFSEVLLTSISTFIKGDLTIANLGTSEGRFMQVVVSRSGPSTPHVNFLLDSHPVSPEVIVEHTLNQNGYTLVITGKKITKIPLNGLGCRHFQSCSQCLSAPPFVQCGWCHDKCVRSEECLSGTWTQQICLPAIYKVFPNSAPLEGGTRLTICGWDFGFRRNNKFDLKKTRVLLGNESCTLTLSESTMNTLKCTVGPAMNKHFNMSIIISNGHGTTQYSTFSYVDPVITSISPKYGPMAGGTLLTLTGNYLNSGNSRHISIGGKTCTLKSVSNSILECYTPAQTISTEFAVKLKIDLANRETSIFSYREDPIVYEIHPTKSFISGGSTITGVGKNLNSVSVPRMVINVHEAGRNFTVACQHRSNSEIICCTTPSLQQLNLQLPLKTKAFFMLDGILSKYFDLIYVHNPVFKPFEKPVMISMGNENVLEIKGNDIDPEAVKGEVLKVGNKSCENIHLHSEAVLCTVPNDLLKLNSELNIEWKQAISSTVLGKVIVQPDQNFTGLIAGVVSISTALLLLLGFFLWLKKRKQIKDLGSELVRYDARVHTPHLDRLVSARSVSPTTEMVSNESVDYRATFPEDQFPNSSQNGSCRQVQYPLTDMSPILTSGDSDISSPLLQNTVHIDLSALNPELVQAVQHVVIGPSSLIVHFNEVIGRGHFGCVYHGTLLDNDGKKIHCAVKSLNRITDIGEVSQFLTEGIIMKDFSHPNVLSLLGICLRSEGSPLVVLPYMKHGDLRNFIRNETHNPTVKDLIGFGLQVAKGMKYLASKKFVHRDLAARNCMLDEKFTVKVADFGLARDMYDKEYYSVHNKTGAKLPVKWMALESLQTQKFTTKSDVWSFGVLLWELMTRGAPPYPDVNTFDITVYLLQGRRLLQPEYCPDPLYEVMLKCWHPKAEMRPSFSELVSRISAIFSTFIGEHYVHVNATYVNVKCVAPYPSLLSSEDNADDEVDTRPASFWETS

B1: 71C3 chimeric llama-human IgG1 mAb (antibody, V domains shown)
VH: QLQLVESGGGLVQPGGSLRLSCAASGFTFSSHAMSWVRQAPGKGLEWVSAINSGGGSTSYADSVKGRFTISRDNAKNTLYLQMNSLKPEDTAVYYCAKELRFDLARYTDYEAWDYWGQGTQVTVSS
VL: SYELTQPSALSVTLGQTAKITCQGGSLGSSYAHWYQQKPGQAPVLVIYDDDSRPSGIPERFSGSSSGGTATLTISGAQAEDEGDYYCQSADSSGNAAVFGGGTHLTVL
notes: llama VH on human IgG1 CH1-CH2-CH3, llama VL on human lambda CL
phospho-MET ELISA EC50, A549 cells [1]: 0.35 nM
phospho-MET ELISA EMAX (% HGF activity), A549 cells [1]: 86.2%
phospho-MET ELISA EC50, MLP29 cells [2]: 0.33 nM
phospho-MET ELISA EMAX (% HGF activity), MLP29 cells [2]: 98.8%
scatter score 0-4, HPAF-II, 0.001 nM [3]: 0 score
scatter score 0-4, HPAF-II, 0.004 nM [3]: 0 score
scatter score 0-4, HPAF-II, 0.012 nM [3]: 0 score
scatter score 0-4, HPAF-II, 0.037 nM [3]: 0 score
scatter score 0-4, HPAF-II, 0.111 nM [3]: 1 score
scatter score 0-4, HPAF-II, 0.333 nM [3]: 2 score
scatter score 0-4, HPAF-II, 1.000 nM [3]: 3 score
scatter score 0-4, HPAF-II, 3.000 nM [3]: 4 score
scatter score 0-4, HPAF-II, 9.000 nM [3]: 4 score
scatter score 0-4, MLP29, 0.001 nM [4]: 0 score
scatter score 0-4, MLP29, 0.004 nM [4]: 0 score
scatter score 0-4, MLP29, 0.012 nM [4]: 0 score
scatter score 0-4, MLP29, 0.037 nM [4]: 0 score
scatter score 0-4, MLP29, 0.111 nM [4]: 1 score
scatter score 0-4, MLP29, 0.333 nM [4]: 2 score
scatter score 0-4, MLP29, 1.000 nM [4]: 3 score
scatter score 0-4, MLP29, 3.000 nM [4]: 4 score
scatter score 0-4, MLP29, 9.000 nM [4]: 4 score
protection from staurosporine, viability EC50, MCF10A cells [5]: 31.9 nM
protection from staurosporine, viability EMAX, MCF10A cells [5]: 50.2%
protection from staurosporine, viability EC50, MLP29 cells [6]: 31 nM
protection from staurosporine, viability EMAX, MLP29 cells [6]: 51.3%
branches per spheroid, LOC cells, 0.5 nM [7]: 8.7 branches
branches per spheroid, LOC cells, 2.5 nM [7]: 12.7 branches
branches per spheroid, LOC cells, 12.5 nM [7]: 15.7 branches
branches per spheroid, MLP29 cells, 0.5 nM [8]: 11.7 branches
branches per spheroid, MLP29 cells, 2.5 nM [8]: 15.7 branches
branches per spheroid, MLP29 cells, 12.5 nM [8]: 24.7 branches
EC50 [9]: 0.572 nM
EMAX [9]: 106 % relative to control
EC50 [10]: 0.585 nM
EMAX [10]: 115 % relative to control
% binding (EMAX) compared to WT MET [11]: 99.8 % WT MET ECD
% binding (EMAX) compared to WT MET [12]: 102 % WT MET ECD
% binding (EMAX) compared to WT MET [13]: 59.6 % WT MET ECD
% binding (EMAX) compared to WT MET [14]: 61.6 % WT MET ECD
EC50 (human MET ECD [15]): 0.203 nM
EMAX (OD450) (human MET ECD [15]): 2.46 AU
EC50 (mouse MET ECD): 0.293 nM
EMAX (OD450) (mouse MET ECD): 2.24 AU
% binding (EMAX) compared to WT MET (human MET ECD [16]): 100 % WT MET ECD
IC50 [17]: 1.42 nM
IMAX [17]: 93.6%
IC50 [18]: 1.56 nM
IMAX [18]: 89.2%
